# Source: the DeepSol protein solubility set
# Test: soluble on expression in E. coli; label from the status in PepcDB or PDB records
row,Sequence,soluble on expression in E. coli
1,MSLQIKFIDLFSGMSGIRKGFEQACRKQSVACECVFTSEIKPAALEVLKQNYPDEVPYGDITKIETGDIPDFDILLAGFPCQAFSFAGKRLGFEDTRGTLFFDVARILKAKKPKGFILENVEGLVTHDRKDPTQKIGRTLTVILETLETLGYYVSWKVLNAKDFGIPQNRKRIYLTGSLKSKPDLSFETTLSPKLKNILESGLPTESSPFIKKLLKKFPPSELYGKSVKDKRGGKNNIHSWDIELKGTVTEEEKQLLNMLLKERRKKKWASEIGIDWMDGMPLTKAQISTFYKHPNLQNILDSLTDKGYLVLEHPKQKIGGRRIKDESLPKGYNIVSGKKSFEINKILDPNDVAPTLVAMDMEHLFVVDNGGLRTLTGKEGLRLFGYPDDYSFDIPKKDKYDLLGNTVAVPVIKAVSERLLHTLEGHHHHHH,soluble
2,MAHHHHHHMSELQSLTPETAFTVASTFLAYYYSEFVKLNELARMSDLYDERSYMTLVDFRDEVPVVAHGRNAVANLLAKLDSTLGQRKVEIITVDTVALPHNCVQVICQGVMYLREYRRVFLHVFMLEPTAYRTKTYHIASDYLRFVDSEKEVIPEGAVVIAADQVAAYLEESRRRVEEEQRRQLLEFQQRIRLQQQQLQMQQQQQQQKAAAMNMPAPASRQSRPAASASRDGGRPARGERKPREPRENRGERKPREPREPRGEHKPREGEEKVAAASPSRLAGEGKKGGERGNRKPAAAANAAKGTADTAAATPAPAAVRKPRRESGPTAAIIMLRVPKKIKLSDIKAELVSQGFSELKDLFWCGRDSAHAVVKFSTVEKATEAFETKPFKIQGESLNLDYYHE,soluble
3,MSTKRKIVVSSDSDDDMPFTQEKQKKAATPAKKRTKPVVLTDDDEEEENAPQKKTAPKRSRKQEKEESDITSDEDELVRGTDEKKKRKGGKKELPVGQKTLDYMFKPSSSSSKRDDPKKKVEKTLVNPADFFKNSPAPSASKLPKVAPKTVEKPKTPAKKPVEISPSTKENTKTKKVSDDEFVDSDDSFDTFTPITVKKKTPEKRKETPKKKELPSVKKEFPKKQSIPVKKEKETPQKKALSVKKDPPKVTSESSSSSQVSTSSVVFQPKPSGPPPALSWVDKYKPKRMGELVGQNGDKSPINKLLEWIKDWAKHNLGEGAKIKKPKPAPWMSSQDGTSFKAALLSGSPGVGKTTCAYMACQQLGLQLVEMNASDVRSKKHLEAKIGELSGSHQIEQFFGAKKCAPQDNQKVHHILIMDEVDGMSGNEDRAGISELIQIIKESKIPIICICNDRQHPKIRTLANYCYDLRFPKPRVETIRSRMMTICSQEKMKIGKEELDEIIELSGHDVRQTIYNLQMRSKGVGAKINQKDMAVDAFSAARRLLDSRTTLMEKQEMFFTDYGIMPLFVQDNYLNMKNEKHSPIQAIRGIRKAADFISLGDLIDRQIRGGGSWKLLNEQSMISAALPAIATGGHLKAMIQFPSWLGKNSTAGKRKRLLQQLVQHTHLKVSAGTHSFATDYAPMLRQKITKPLLEHEADGIPDVISTMTEYDLIKDDTEALTEIVAWPGKIDPASKILSKVKASLTRTLNKTGRMLPYSMDSVSKGKKRGVNSIGIEMDEEGNLVEKFEDEDGESDNEDNEEKTTDVVIKVRTGGGAGASKSARGGRGGGRARGGRGSKK,not soluble
4,MVKATAIDMSLSDIISTNRKNKKVVKKPIKKSAGGIRKRGNASNVGTPRRQSGGTSRGGGRMGNTVRRSAGGSSNDNKQVRINISNLAETVISSDLQELFGAFNLHKVSVNFNENGGAAGTGDITLKKYDADRLIQKFAGVALDGKVMHFAVIESSNFARKPEIRGTPNRRQSSGKPINRKVANPPRRQNAAKPPVKKGKKPAREQKPPKTAEQLDAELDAYMSRSA,not soluble
5,SLRSLLTRRTIAIEGCCHGELDAIYSSLARLEEMHKMKVDLLICCGDFQFLACPPKYRDLRDFPAYFRGEKEAPCLTVFVGGNHEAPTVLRELYYGGWVAPKIFYLGHAGVVNVGGVRIAGLSGIFKSQDYRKGYFERPPYTEDTMRSAYHVREFEIAKLNRELTGRVDIVVTHDWPEGIYDFGDKTELIRQKPFLEKDIQAHELGNPHSMELLKKLKPAFWFAAHLHTRFAAVYVHPGPEGKATRFLALDKVLPRREFLQILEVEPLLPAGYVQQLSPGISRRSPTLCYDEEWLAILRANQQVLPVSRFPQKSCLVTKATADDLATVKKNLASLGLR,soluble
6,MGSDKIHHHHHHMPVLNSVANTVPTRFRFDLLTHDDNDRLQSDSLCPVGFTSLGREPVRLKFGGTKIRDFCVWKTESATGFEARPRVVSDLVTIRFPISGGLARKDGREEVNIDRGQGVIIPFRDMEYERTSRSASMISCTIASVSIFQKMQALYGEERSTFASFVPVVDVNIPQIRIFRTALLRLHDNLQQHGDHNPLSFPIVEELLVFHLLSCWPTTAAVRPTADQVNNRVLRNALDYIEANLASPITVSEIAFAAGVSVRSLQIAFRESKGITPVQYIIECRLDRVHDALKRGFAPGYISQIANAWGFQHHADFSRRYRKRFGETPKQTRTR,not soluble
7,MEGSSSTIARKTWELENSILTVDSPDSTSDNIFYYDDTSQTRFQQEKPWENDPHYFKRVKISALALLKMVVHARSGGTIEIMGLMQGKTDGDTIIVMDAFALPVEGTETRVNAQDDAYEYMVEYSQTNKLAGRLENVVGWYHSHPGYGCWLSGIDVSTQRLNQQHQEPFLAVVIDPTRTVSAGKVEIGAFRTYSKGYKPPDEPVSEYQTIPLNKIEDFGVHCKQYYSLDVTYFKSSLDSHLLDLLWNKYWVNTLSSSPLLGNGDYVAGQISDLAEKLEQAESHLVQSRFGGVVPSSLHKKKEDESQLTKITRDSAKITVEQVHGLMSQVIKDELFNSMRQSNNKSPTDSSDPDPMITY,soluble
8,MGSDKIHHHHHHMATETLTKSDAITQSLRAAVDRNFNDQVAFLQRMVQFRSVRGEEAPQQEWLAQQFADRGYKVDTFSLADVDIASHPKAAPMDTIDPAGSMQVVATADSDGKGRSLILQGHIDVVPEGPVDLWSDPPYEAKVRDGWMIGRGAQDMKGGVSAMIFALDAIRTAGYAPDARVHVQTVTEEESTGNGALSTLMRGYRADACLIPEPTGHTLTRAQVGAVWFRLRVRGTPVHVAYSETGTSAILSAMHLIRAFEEYTKELNAQAVRDPWFGQVKNPIKFNVGIIKGGDWASSTAAWCELDCRLGLLTGDTPQEAMRGIEKCLADAQATDSFLSENPAELVWSGFQADPAVCEPGGVAEDVLTAAHKAAFNAPLDARLSTAVNDTRYYSVDYGIPALCYGPYGQGPHAFDERIDLESLRKTTLSIALFVAEWCGLRKL,not soluble
9,MVCVSFPLFPEREADLCQRLVHLLDELRHHFVEIGHVLRIPLNDDVVNAFAFHARVVVCKEPCVFSGHPHAVLHLGHVRRLDGFETAKAEFHEVAGGERAFKLKAEPVTAQAVRGAGGAHALVTEQDRRLRDFHVSGELEEGAGVFFVLLAPGQRLGVNLWRYTGAYLGEQGVEVGHFHVCPFAARSRLGNDVVSVRGSNNSEP,not soluble
10,KPKFFYIKSELNGKVLDIEGQNPAPGSKIITWDQKKGPTAVNQLWYTDQQGVIRSKLNDFAIDASHEQIETQPFDPNNPKRAWIVSGNTIAQLSDRDIVLDIIKSDKEAGAHICAWKQHGGPNQKFIIESE,soluble
11,QYQDYASFFRNNKSVTHLIVPSNFIGAGVSKYKDWKRSNIPYTQLDMAVVQNRPAGSLRRFVVLVVGETTRAANWGLNGYSRQTTPLLAARGDEIVNFPQVRSCGTSTAHSLPCMFSTFDRTDYDEIKAEHQDNLLDIVQRAGVEVTWLENDSGCKGVCGKVPNTDVTSLNLPEYCRNGECLDNILLTKFDEVLNKNDKDAVLILHTIGSHGPTYYERYTEAERKFTPTCDTNEINKCTRATLVNTYDNTVLYVDQFIDKVIRKLENRDDLESVVHYVSDHGESLGENG,not soluble
12,MSTSGSGGGNTPDLSKENVASSPNANPKKNADTESSGGSKNNRQRRRSNTKGDGSNSRNGSRTNSVSNSKNQSNRKDWTDRKSFSQGGINVKSKSPGDDHKRTRSSNSQSAKRNARDSTRTMSQASNGEGLDYSDEYELDEPFSDSDDEDSRPKKPEKMSLTVARGRIRTLSGTVPVVGYSPRWGGPTMCVSCLEFFDLPEQISGFADHLLKEHKIVVSEMNLIVDPKRYIEHWRQRFAKESIDKIFPRIEPSEGDSYFGETDYYYLMSENVAEDRSLRQRLAMRRLEEALQCQQREREDTSFQLQCIFCRYNARGNRSKIIHHLYMIHHLNLGSPDNLVFVTEYIEHLKEKLHRNECIYCEKIFPDRNTLMDHMRKRNHREVNPKNHYYDKFYIINYLELGKRWLDVLAEDFEDTMPTFQDSDEEEEDNEWCEWQEDNLDADETRVVCLLCDASEDNAQSLLEHMKTTHEFDLLKNVSDDKLNSYQRLRLINYIRKQNYHADCWVCQKTEFENPLALQKHILEHKPLSHLPDASIWDTEENLVPIFGNDHFLWMLESILEENEITCSSDDEGESEERFSKLVLESKSNTVEGVIAEDLPELSELNEDDLNALM,not soluble
13,MSQYSENIIIGAGAAGLFCAAQLAKLGKSVTVFDNGKKIGRKILMSGGGFCNFTNLEVTPAHYLSQNPHFVKSALARYTNWDFISLVAEQGITYHEKELGQLFCDEGAEQIVEMLKSECDKYGAKILLRSEVSQVERIQNDEKVRFVLQVNSTQWQCKNLIVATGGLSMPGLGATPFGYQIAEQFGIPVIPPRASLVPFTYRETDKFLTALSGISLPVTITALCGKSFYNQLLFTHRGISGPAVLQISNYWQPTESVEIDLLPNHNVEEEINQAKQSSPKQMLKTILVRLLPKKLVELWIEQGIVQDEVIANISKVRVKNLVDFIHHWEFTPNGTEGYRTAEVTMGGVDTKVISSKTMESNQVSGLYFIGEVLDVTGWLGGYNFQWAWSSAYACALSISRQ,soluble
14,MSLKVVKFGGSSLASASQLEKVLNIVKSDSERRFVVVSAPGKRNAEDTKVTDALIKYYRDYVAGNDISKNQSWIIDRYAAMVSELGLKPAVLEKISKSIHALATLPIEENEFLYDTFLAAGENNNAKLIAAYFNQNGIDARYMHPREAGIVVTSEPGHARIIPSSYDKIEELTNTNEVLVIPGFFGVTKENQICTFSRGGSDITGSIIAAGVKADLYENFTDVDGIFAAHPGIIHQPHSIPELTYREMRELAYAGFSVLHDEALLPAYRGKIPLVIKNTNNPDHPGTRIVLKHSNDEFPVVGIAGDSGFVSINMSKYLMNREVGFGRKVLQILEELNIGWEHMPTGIDDLSIILRSRQLTPIKEEEILRQLVQKAKVDHAEIEHDLSIIMIVGEKMKSHIGVTATATRALSENKINIQMMSQGSSEVSIMFVVNKDQEKAAIKALYNAFFGESKEDEGHHHHHH,soluble
15,MFAPQGLAQFIKVNVTLENGEPVFIYTDANGQVCQGDITVTQAGTITYLLNDQTLKGLKFVGVGFVTPFDGIIDAVTISSDGMLVQLVDLDKTPGTTKFQFVLSNTANTLLVLSPDPQIINRPQN,soluble
16,MRFKAELMNAPEMRRALYRIAHEIVEANKGTEGLALVGIHTRGIPLAHRIARFIAEFEGKEVPVGVLDITLYRDDLTEIGYRPQVRETRIPFDLTGKAIVLVDDVLYTGRTARAALDALIDLGRPRRIYLAVLVDRGHRELPIRADFVGKNVPTSRSEVVKVKVEEVDGEDRVELWEREGA,soluble
17,MIIFSGGTGTPKLLDGLKEILPEEELTVVVNTAEDLWVSGNLISPDLDTVLYLFSDQIDRKRWWGIENDTFGTYERMKELGIEEGLKLGDRDRATHIIRSNIIRDGASLTDSTVKLSSLFGIKANILPMSDDPVSTYIETAEGIMHFQDFWIGKRGEPDVRGVDIRGVSEASISPKVLEAFEKEENILIGPSNPITSIGPIISLPGMRELLKKKKVVAVSPIIGNAPVSGPAGKLMPACGIEVSSMGVAEYYQDFLDVFVFDERDRADEFAFERLGCHASRADTLMTSTEKSKELAEIVVQAFLEHHHHHH,soluble
